Reference: patent US6803203

Key:
[1] = test system: T1, synthetic peptide (SEQ ID NO: 11)
T1 sequence: EPPLSQEAFADLWKK

[2] = test system: T2, synthetic peptide (SEQ ID NO: 20)
T2 sequence: EPPLSEQAFADLWKK

casein kinase I
incorporation of phosphate into the peptide (200 or 500 µM) [1]: less than 5% of the incorporation into the standard peptides used to assay each kinase
incorporation of phosphate into the peptide (200 or 500 µM) [2]: less than 5% of the incorporation into the standard peptides used to assay each kinase

casein kinase II
incorporation of phosphate into the peptide (200 or 500 µM) [1]: less than 5% of the incorporation into the standard peptides used to assay each kinase
incorporation of phosphate into the peptide (200 or 500 µM) [2]: less than 5% of the incorporation into the standard peptides used to assay each kinase

catalytic subunit of cyclic AMP kinase
incorporation of phosphate into the peptide (200 or 500 µM) [1]: less than 5% of the incorporation into the standard peptides used to assay each kinase
incorporation of phosphate into the peptide (200 or 500 µM) [2]: less than 5% of the incorporation into the standard peptides used to assay each kinase
